From the DeepSol protein solubility set

Experiment: soluble on expression in E. coli; label from the status in PepcDB or PDB records

Sequence	soluble on expression in E. coli
MGSDKIHHHHHHMAEKPISLSQAPAGYSDWLSELKTKIHSAQQRATLAVNQELVLLYWQIGQEILTRQAELGWGAKVVERLAHDLRTAFPDMKGFSPRNLKYMRAFAEAWPDLEFVQALLAQLPWYHQLALLDKLDNTDSRTWYAQKALENHWSRNVLVMHIESGLHQRQGAAITNFAATLPKPQSDLARESIKDPYRFDFLGLTEAAQEREIEHALVQHVTQFLLELGAGFAFVGRQVLMQVGDEEFFIDLLFYHLKLRCYVVIELKTGKFKPEHLGQLSFYMTAIDKQVKTEPDNATIGLLLCKSKDKVVAEYALGDKSQAMGIAEYKLQQALPEVLESNLPSIEQIERELQGEA	not soluble
MDRLGSFSNDPSDKPPCRGCSSYLMEPYIKCAECGPPPFFLCLQCFTRGFEYKKHQSDHTYEIMTSDFPVLDPSWTAQEEMALLEAVMDCGFGNWQDVANQMCTKTKEECEKHYMKYFINNPLFASTLLNLKQAEEAKTADTAIPFHSTDDPPRPTFDSLLSRDMAGYMPARADFIEEFDNYAEWDLRDIDFVEDDSDILHALKMAVVDIYHSRLKERQRRKKIIRDHGLINLRKFQLMERRYPKEVQDLYETMRRFARIVGPVEHDKFIESHACRWFLSLEQYLCVYIYINRRDNGVFYVKFYK	soluble
MGSDKIHHHHHHLRNVLPKDALLTAVDISDSMMDVARAKFLPHEQVTFQVADATTLPFENEAFDAVVCQFGVMFFDKDTAFREAYRTLGRGGRYLFSVWDSRRYNPFASLAFEVLKQFFPLNPPRFLEAPVSSFEIDPIKEALIQSGFERIVISVQGREHDILDVRTFARGLVFSPVIEEIRERGGVEPEDIIAALAEALKREYGSRPTRYPMQAILFEAEKP	not soluble
MSLAANMYRVGDYVYFENSSSNPYLVRRIEELNKTANGNVEAKVVCLFRRRDISSSLNSLADSNAREFEEESKQPGVSEQQRHQLKHRELFLSRQFESLPATHIRGKCSVTLLNETDILSQYLEKEDCFFYSLVFDPVQKTLLADQGEIRVGCKYQAEIPDRLVEGESDNRNQQKMEMKVWDPDNPLTDRQIDQFLVVARAVGTFARALDCSSSIRQPSLHMSAAAASRDITLFHAMDTLQRNGYDLAKAMSTEGHHHHHH	not soluble
DDVPPRIARAMENEEYWDFDIFELEAATHNRPLIYLGLKMFARFGICEFLHCSESTLRSWLQIIEANYHSSNPYHNSTHSADVLHATAYFLSKERIKETLDPIDEVAALIAATIHDVDHPGRTNSFLCNAGSELAILYNDTAVLESHHAALAFQLTTGDDKCNIFKNMERNDYRTLRQGIIDMVLATEMTKHFEHVNKFVNSINKPLATLEENGETDKNQEVINTMLRTPENRTLIKRMLIKCADVSNPCRPLQYCIEWAARISEEYFSQTDEEKQQGLPVVMPVFDRNTCSIPKSQISFIDYFITDMFDAWDAFVDLPDLMQHLDNNFKYWKGLDEM	soluble
MRITLIVLAALSFACTSCWFETGPDRFIYQLSWFCAESSCERGDDLNQFNRAETYGTDFAMSSTSASDLATSATIVVSATLGRDCRLVLDLVLFGHELDESILCFTPNGFELTVTIPDEDPETSSTWVVMAREL	not soluble
NSNNKRAPYWTNTEKMEKRLHAVPAANTVKFRCPAGGNPMPTMRWLKNGKEFKQEHRIGGYKVRNQHWSLIMESVVPSDKGNYTCVVENEYGSINHTYHLDVVERSPHRPILQAGLPANASTVVGGDVEFVCKVYSDAQPHIQWIKHVEKNGSKYGPDGLPYLKVLKAAGVNTTDKEIEVLYIRNVTFEDAGEYTCLAGNSIGISFHSAWLTVLPAPGRE	soluble
MSLNIIRLLAESLPRISDGNENTDVWVNDMKFKMAYSFLNDDIDVIERELEQTVRSDYPLLSEAGLHLLQAGGKRIRPVFVLLSGMFGDYDINKIKYVAVTLEMIHMASLVHDDVIDDAELRRGKPTIKAKWDNRIAMYTGDYMLAGSLEMMTRINEPKAHRILSQTIVEVCLGEIEQIKDKYNMEQNLRTYLRRIKRKTALLIAVSCQLGAIASGADEKIHKALYWFGYYVGMSYQIIDDILDFTSTEEELGKPVGGDLLQGNVTLPVLYALKNPALKNQLKLINSETTQEQLEPIIEEIKKTDAIEASMAVSEMYLQKAFQKLNTLPRGRARSSLAAIAKYIGKREGHHHHHH	soluble
MSLTLIYGHRGAKGEAPENTLASFQRCLEHGVNRCELDLHLSRDGELMVIHDPTLKRTTGRRGKVAEHDAATLATYDARKGGPGWVRPTPIPRLEELFEKCPFEHWQLEVKSASRERAARTVTRIRELTERFGNRDKVTVTSGSRTVLKALNELTPELSRGLVAEYAWLDPLKVAQHYGCALLALNWTLCTPERLLKAQRQGLHVSVWTVNEPALMRRLADFGVDSLITDFPGLASATLGNEGHHHHHH	not soluble
MGSDKIHHHHHHMTVRDFHYYEPAEGHGLSHNPLNALVAPRPIGWISSRDAQGRVNLAPYSFFNAFNYDPPIIGFSSIAWKDSVQNASETREFTWNLVTRELGDQMNQTSSPLPHGEDEFQFAGLTAVAGRKVNVPRVGESRAAMECKVIDIVQFRNTAGEKVGGWLVLGEVVAVYIDKTLLKDGVYQTAEAYPIMRSGGLNDYVQVSPDNVFQIARLAGASSPSSHGKG	not soluble
MAHHHHHHMSLITTICRHPLASKRFMIVFRNEEGEELPEIFELRTRYEAIAPIAKGAYGFVCAATDNDLVENFHMSPPEEYNDPSLSKEERLDIYESHTTVAVKKLRQLFEQNRPRMWLCATREIQLMMAFKHENVMSALDFFIPLGDCERMTYESVEYLRHNFDSVYIVMKKMEYTLREVLESSVFTTTDTQDECGKLSNGKITSSAGTEKHDDGAHDDINKSTARRNERIARCPQTHLVLHPLARDYRMFILYQLLRGVGYMHLCLVIHRDIKPENIMLDRNYNTRVCDFGQGRDAVATELDGVLQTFLDNCTQWYAAPETLTLANVSSPSGFVDQKTLHAADVWSIGCIAAEMVIGRPLFYCRHSGGVGQLNAIMGVLGKIPEEAAERILQHRDEDTQKLFESVMRREMQQHLHKPSTLRRLLQSPYGDVDEEEIRLIERLLCYDPSQRITIQEALQSNYFINEGYEPVIDPDDTATHVRAVEAKEVVDAVRGRRFLWSLFLKHHPEVEELMRVLEIRRNSSSTDSTEVPPPACV	soluble
MPDGDFITLDRVEKVFDVRRKTGFLRSERRRVRAVDSLSFTVARGEMVGYIGPNGAGKSTTIKMLTGILTPSGGRLRVAGIDPSRERTRLAARIGVVFGQRTTLWWDLPLIDSYRLMHRMYRIPDGRYRENLDRCVELLELGDLLDVPVRQLSLGQRMRGDIAAALLHDPEVLYLDEPTIGLDVISKARVREFLRELNAERGTTVLLTTHDLQDIEQLCGRVMVIDHGRLMYDGPLAGLHEVGDSERTLVVDLARELPPIEAAPARVVKVEGPRQWLAFPASESAAPLVARIAAAYPLVDLSVREPDIEAVIAKMLQSMGDTPQPPPEQAEHVVSLEHHHHHH	soluble
MGSDKIHHHHHHMKHYQTIIIGAGAAGIGFGSAMQRLGLTNFLIIEKGHIGESFLRWPRTTQFITPSFTTNGFGFPDLNAVIPDTSPAFSFEKEHLSGVEYARYLQLVAAHYNLPIQNETSVLSIDKRDSLFVIKTSKGDFSADYLIMATGEFQNPNTIDIKGADLGMHYGQVDNFHIKSDNPFIIIGGNESACDALTHLVYLGNQVELYTDTFGRKESNPDPSISLSPLTKERLKHIQDHKKEYYSISEGKKAIEIKQIGKQYQVTFDDGSTAESFHKPILSTGFLNTCHLIDGIALFEYDKNQLPIVTEDDESTIVNNCFLIGPSLRQRDTIFCYIYKFRQRFVPVINHIAQREGIILDEDTLEFFKENQMYLDNLACCDVNCDC	not soluble
MDDSTLTELEAAAFRRLVAHLRERTDVQNIDLMNLAGFCRNCLSNWLKDAADAQGVAMSRDESREAVYGMPYETWKAKYQSTATPDQVEAFKKSHPHSH	not soluble
MEGMKGAVLITGASRGIGEATARLLHAKGYRVGLMARDEKRLQALAAELEGALPLPGDVREEGDWARAVAAMEEAFGELSALVNNAGVGVMKPVHELTLEEWRLVLDTNLTGAFLGIRHAVPALLRRGGGTIVNVGSLAGKNPFKGGAAYNASKFGLLGLAGAAMLDLREANVRVVNVLPGSVDTGFAGNTPGQAWKLKPEDVAQAVLFALEMPGHAMVSEIELRPTRPTSGPR	soluble
MCNNEAKMSELLSVQSDAPAKKINLMDLTRQQMREFFKELGEKPFRADQLVKWIYHFGEDNFDNMTNINKKLREKLKAVAEIKAPEVAVEQRSADGTIKWAMQVGEQQVETVYIPEADRATLCVSSQVGCALACTFCSTAQQGFNRNLTVSEIIGQVWRASKIIGNFGVTGVRPITNVVMMGMGEPLLNVANVVPAMEIMLDDFAYGLSKRRVTLSTSGVVPALDNLSKMIDVALAISLHAPNDELRDEIVPINKKYNIKTLIDSVNRYLNVSNANHGKVTIEYVMLDHVNDGVEHAHQLAEVLKNTPCKINLIPWNPFPEAPYAKSSNTRIDRFQKTLMEYDFTVIIRKTRGDDIDAACGQLAGDVIDRTKRTAMKRQFGQNIGVTEVN	not soluble
MRPMALPAWREVALPHEDIRRGRFDESTFAADLADVLAGRGPLEYRDPLTFFRKTYPTKGMVRLLGAVVRRLSGEKGGEPVVQIQTPFGGGKTHGLVALYHLFRSGEEARGTELYARVLEEAGVERIPEAKVAVFVGTAADPLKGRTPWGELALQLGHYGLLEEHDKARQAPGKERLYELFRAAGGPVLILMDEVAEYVARTVDPTALHKEGGSLEGGRAYQTQVLAFFQELTEAVKVAPQVALVMTIPSSAPYGEEGERALLQLQRIAGRLEAIYEPVKGWEIYDVIRTRLFEGIRDEGVVRKVAERYFELYRRLGTEVPDEARDPAYRERMRRAYPFHPELIDALYERWGTLSTFQRTRGVLRFLAEIVADLYGREHSAPLIHSAHVNLANPSIRRELVKHIGNEFDSVIAADIADPEGQAKAQRLDREMGSEYVRFQVASGLATAIFLYSFSGGERKGASPAQLRLAALRPEVPPPLVGDALGRLRELLWYLHEASGLYYFSSQPNLNRIVVERENAVDPEQIRQALRERLERIAGRELRVYLEPHSPQDVPDTKELKLAVLSEPSGSLAEELLEKAGTTFRTYKNTLFLLSPDPNSLGDLHRAARRYLALRSIREDRTLYGQLSAENRHRLDELLREADGALTQKLFMAYRRLTKPGRQGPETYDMGIPTVGEASTLAKRVYEYLKAREFLLERIAPRHLLSALAQGETGKPLQEVYEAFLRYPHLPVLKGWEVLEEAVRKGVAEGTFGLRVGERYYFQEPVLGIAWEEAFLVRKEALPPERESVVDGEKKGEASSEGVAPKPDSSEEEVPPDSSGGEARPERVQEYTVKVRLPWNRLSDFLRGVLMPLQREGAEMELQIELRARSQEGIPRATLDKIRETLDQLQAKVEEA	soluble
MGSSHHHHHHGSTKYALVGDVGGTNARLALCDIASGEISQAKTYSGLDYPSLEAVIRVYLEEHKVEVKDGCIAIACPITGDWVAMTNHTWAFSIAEMKKNLGFSHLEIINDFTAVSMAIPMLKKEHLIQFGGAEPVEGKPIAVYGAGTGLGVAHLVHVDKRWVSLPGEGGHVDFAPNSEEEAIILEILRAEIGHVSAERVLSGPGLVNLYRAIVKADNRLPENLKPKDITERALADSCTDCRRALSLFCVIMGRFGGNLALNLGTFGGVFIAGGIVPRFLEFFKASGFRAAFEDKGRFKEYVHDIPVYLIVHDNPGLLGSGAHLRQTLGHIL	soluble
MAMNNILGLFAHSPLKPLQKHSEKVTECSDLLIPFFQTTFSKNWEQAEEKRLEISQCEREADSLKREIRLKLPRGLFLPIDRTDLLELVTQQDKLANYAKDIAGRMIGRQFGIPEEMQEEFLHYVKRSLDAIHQAHRVIEEMDKLLETGFKGRELKLVNDMIQELDSIEDDTDQMQIKLRKMLYTIESRYNPIDVMFLYKIIEWVGVLADQAQRVGSRIELMLARS	not soluble
